According to patent US11649460B2, “DNA aptamers, method for inhibiting human galectin-1 and method of treating a mammal in need thereof” (priority 2020, dated 2023):

Key:
[1] = biological target: galectins; conditions: in vitro; cited from earlier work
[2] = tested on: MCF-7 human breast adenocarcinoma cell line; assay: SRB cell proliferation (cytotoxicity) assay, MCF-7
Description: (§1) The XLSTAT software was used to determine the IC50, TGI and LC50 values using the four-parameter logistic curve equation.

[3] = tested on: DU-145 human prostate carcinoma cell line; assay: SRB cell proliferation (cytotoxicity) assay, DU-145
Description: as §1

[4] = tested on: A-375 human malignant melanoma; assay: SRB cell proliferation (cytotoxicity) assay, A-375
Description: as §1

[5] = tested on: HT-29 human colorectal adenocarcinoma; assay: SRB cell proliferation (cytotoxicity) assay, HT-29
Description: as §1

[6] = tested on: HCT 116 human colorectal carcinoma; assay: SRB cell proliferation (cytotoxicity) assay, HCT 116
Description: as §1

[7] = tested on: SK-BR-3 human breast adenocarcinoma; assay: SRB cell proliferation (cytotoxicity) assay, SK-BR-3
Description: as §1

[8] = tested on: OVCAR-3 human ovarian adenocarcinoma cell line; assay: SRB cell proliferation (cytotoxicity) assay, OVCAR-3
Description: as §1

[9] = tested on: NHF human foreskin skin fibroblasts; assay: in vitro
Description: as §1

[10] = biological target: T1, native human galectin-1 (hGal1) (Homo sapiens, UniProt P09382); assay: Thermofluor thermal shift assay (TSA), native galectin-1; format: binding; conditions: 5 μM protein
T1 construct: 42; made in house; host or cells: E. coli strain M-15
Method: In an attempt to screen among the selected aptamers that better interact with hGal1, differential scanning fluorimetry (Termofluor) was used to characterize their binding to its target. Among all the selected aptamers, SEQ ID NO.: 4 seemed to have a more intense effect on hGal1 thermoshift and so was chosen for further analysis. The selected aptamer had its interaction evaluated with native and alkylated galectin-1. […] The respective thermal displacements were evaluated as a function of an increasing concentration of SEQ ID NO.: 4 (FIG. 1).
Thermofluor experiments were performed on an Mx3005 RT-PCR (Agilent Technologies) using the SYPRO® Orange dye (492/610 nm) (Invitrogen) as fluorescent probe. The purified (native and alkylated) protein samples were incubated for 30 min with increasing concentration of the molecules of interest, centrifuged, and submitted to the thermal denaturation assay, totalizing four distinct experiments. In a 96-well plate (Agilent Technologies) 20 μl of the reaction containing 5 μM of each protein in buffer PBS 1× and 5× SYPRO® Orange were heated from 25° C. to 95° C. at a rate of 1° C./min. The experimental result was processed as in the protocol previously described and the melting temperature was obtained using GraphPad Prism software (www.graphpad.com).

[11] = biological target: T2, hGal1-induced hemagglutination of red blood cells (Homo sapiens, UniProt P09382); assay: Hemagglutination inhibition assay, native hGal1; format: cell-based; conditions: native Gal1 5 μM
T2 construct: 42; made in house; host or cells: E. coli strain M-15
Method: Hemagglutination Inhibition Assay
Hemagglutination assay was adopted to assess the capacity of SEQ ID NO.: 4 in inhibiting the lectin cross-linking aggregation of red blood cells (RBC), as previously described. Briefly, using a 96-well microplates appropriate amounts of 5 μM hGal1 were blended with 50 μL of aptamer in an increasing concentrations manner (0-40 μM) in PBS 1× buffer (pH 7.4). Following, 50 μL of 3% purified type B+ RBC in PBS. After 2 h of room temperature incubation, the plate was photographed and the hemagglutination area was estimated by area calculator Sketchandcalc™ and the results were expressed as relative agglutination.

[12] = tested on: seven cell lines of solid human tumors; assay: SRB antiproliferative assay, panel of tumor lines; format: cell-based; conditions: read-out: 50% growth inhibitory concentrations (IC50); all tumor cell lines assessed
Description: as §1

[13] = tested on: OVCAR-3 cell line; assay: Synergism test with cisplatin, OVCAR-3; conditions: cisplatin 3 μM
Description: For the analysis of cell proliferation, the non-clonogenic method of sulforodamine B (SRB) was used, a protein dye that binds to the basic amino acid residues of cell proteins that were viable at the time of the fixation process. Therefore, the greater the amount of SRB bound per compartment, the less the antiproliferative activity of the item under study.

T1 sequence (P09382 2-135): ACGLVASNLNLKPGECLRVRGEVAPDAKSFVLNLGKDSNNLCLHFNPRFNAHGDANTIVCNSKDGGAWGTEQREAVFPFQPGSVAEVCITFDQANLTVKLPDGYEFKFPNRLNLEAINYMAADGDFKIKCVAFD
T2 sequence (P09382 2-135): as above

1-methyl derivative of LacNac
Kd [1]: 70 µM

B1: AGCTGACACAGCAGGTTGGTGCCAACAAGAAAAGAAACCGTTACAGAAGACACTACAGAATAAGTGAAAAGCCGAGTCGAGCAATCTCGAAAT (nucleic acid)
DNA: AGCTGACACAGCAGGTTGGTGCCAACAAGAAAAGAAACCGTTACAGAAGACACTACAGAATAAGTGAAAAGCCGAGTCGAGCAATCTCGAAAT
modifications: chemistry not given here
Relative viability (%) of test items ([2]; 0.781 µM): 86.4%
Relative viability (%) of test items ([2]; 1.562 µM): 85.8%
Relative viability (%) of test items ([2]; 3.125 µM): 83.0%
Relative viability (%) of test items ([2]; 6.25 µM): 74.2%
Relative viability (%) of test items ([2]; 12.5 µM): 63.0%
Relative viability (%) of test items ([2]; 25 µM): 47.1%
Relative viability (%) of test items ([2]; 50 µM): 25.6%
Relative viability (%) of test items ([2]; 100 µM): −29.0%
TGI: Concentration for total inhibition of cell growth ([2]; MCF-7): 70.609 µM
IC50 ([2]; read-out: IC50: Concentration to inhibit 50% of cell growth, MCF-7): 24.3 µM
CC50 ([2]; read-out: LC50: Concentration for 50% cell death, MCF-7): > 100 µM
Relative viability (%) of test items ([3]; 0.781 µM): 94.8%
Relative viability (%) of test items ([3]; 1.562 µM): 106.3%
Relative viability (%) of test items ([3]; 3.125 µM): 104.4%
Relative viability (%) of test items ([3]; 6.25 µM): 105.3%
Relative viability (%) of test items ([3]; 12.5 µM): 92.2%
Relative viability (%) of test items ([3]; 25 µM): 72.4%
Relative viability (%) of test items ([3]; 50 µM): 32.5%
Relative viability (%) of test items ([3]; 100 µM): −39.4%
TGI: Concentration for total inhibition of cell growth ([3]; DU-145): 69.568 µM
IC50 ([3]; read-out: IC50: Concentration to inhibit 50% of cell growth, DU-145): 39.3 µM
CC50 ([3]; read-out: LC50: Concentration for 50% cell death, DU-145): > 100 µM
Relative cell viability (%) of test items ([4]; 0.781 µM): 92.6%
Relative cell viability (%) of test items ([4]; 1.562 µM): 84.5%
Relative cell viability (%) of test items ([4]; 3.125 µM): 87.7%
Relative cell viability (%) of test items ([4]; 6.25 µM): 74.2%
Relative cell viability (%) of test items ([4]; 12.5 µM): 81.1%
Relative cell viability (%) of test items ([4]; 25 µM): 65.8%
Relative cell viability (%) of test items ([4]; 50 µM): 51.6%
Relative cell viability (%) of test items ([4]; 100 µM): −72.1%
TGI: Concentration for total inhibition of cell growth ([4]; A-375): 74.279 µM
IC50 ([4]; read-out: IC50: Concentration to inhibit 50% of cell growth, A-375): 47.9 µM
CC50 ([4]; read-out: LC50: Concentration for 50% cell death, A-375): 93.1 µM
Relative cell viability (%) of test items ([5]; 0.781 µM): 90.8%
Relative cell viability (%) of test items ([5]; 1.562 µM): 93.7%
Relative cell viability (%) of test items ([5]; 3.125 µM): 103.0%
Relative cell viability (%) of test items ([5]; 6.25 µM): 94.2%
Relative cell viability (%) of test items ([5]; 12.5 µM): 78.3%
Relative cell viability (%) of test items ([5]; 25 µM): 32.7%
Relative cell viability (%) of test items ([5]; 50 µM): 15.7%
Relative cell viability (%) of test items ([5]; 100 µM): −71.9%
TGI: Concentration for total inhibition of cell growth ([5]; HT-29): 53.711 µM
IC50 ([5]; read-out: IC50: Concentration to inhibit 50% of cell growth, HT-29): 25.1 µM
CC50 ([5]; read-out: LC50: Concentration for 50% cell death, HT-29): 85.8 µM
Relative cell viability (%) of test items ([6]; 0.781 µM): 95.9%
Relative cell viability (%) of test items ([6]; 1.562 µM): 97.5%
Relative cell viability (%) of test items ([6]; 3.125 µM): 99.9%
Relative cell viability (%) of test items ([6]; 6.25 µM): 96.1%
Relative cell viability (%) of test items ([6]; 12.5 µM): 69.4%
Relative cell viability (%) of test items ([6]; 25 µM): 27.9%
Relative cell viability (%) of test items ([6]; 50 µM): 6.3%
Relative cell viability (%) of test items ([6]; 100 µM): −47.3%
TGI: Concentration for total inhibition of cell growth ([6]; HCT 116): 47.447 µM
IC50 ([6]; read-out: IC50: Concentration to inhibit 50% of cell growth, HCT 116): 20.2 µM
CC50 ([6]; read-out: LC50: Concentration for 50% cell death, HCT 116): > 100 µM
Relative cell viability (%) of test items ([7]; 0.781 µM): 98.0%
Relative cell viability (%) of test items ([7]; 1.562 µM): 99.1%
Relative cell viability (%) of test items ([7]; 3.125 µM): 113.9%
Relative cell viability (%) of test items ([7]; 6.25 µM): 95.4%
Relative cell viability (%) of test items ([7]; 12.5 µM): 90.0%
Relative cell viability (%) of test items ([7]; 25 µM): 50.2%
Relative cell viability (%) of test items ([7]; 50 µM): −8.6%
Relative cell viability (%) of test items ([7]; 100 µM): −66.5%
TGI: Concentration for total inhibition of cell growth ([7]; SK-BR-3): 45.137 µM
IC50 ([7]; read-out: IC50: Concentration to inhibit 50% of cell growth, SK-BR-3): 26 µM
CC50 ([7]; read-out: LC50: Concentration for 50% cell death, SK-BR-3): 78.6 µM
Relative viability (%) of test items ([8]; 0.781 µM): 79.9%
Relative viability (%) of test items ([8]; 1.562 µM): 90.2%
Relative viability (%) of test items ([8]; 3.125 µM): 77.9%
Relative viability (%) of test items ([8]; 6.25 µM): 59.2%
Relative viability (%) of test items ([8]; 12.5 µM): 34.7%
Relative viability (%) of test items ([8]; 25 µM): 16.9%
Relative viability (%) of test items ([8]; 50 µM): −3.7%
Relative viability (%) of test items ([8]; 100 µM): −51.1%
TGI: Concentration for total inhibition of cell growth ([8]; OVCAR-3): 39.740 µM
IC50 ([8]; read-out: IC50: Concentration to inhibit 50% of cell growth, OVCAR-3): 9.46 µM
CC50 ([8]; read-out: LC50: Concentration for 50% cell death, OVCAR-3): > 100 µM
Relative viability (%) of test items ([9]; 0.781 µM): 103.3%
Relative viability (%) of test items ([9]; 1.562 µM): 101.8%
Relative viability (%) of test items ([9]; 3.125 µM): 93.5%
Relative viability (%) of test items ([9]; 6.25 µM): 96.1%
Relative viability (%) of test items ([9]; 12.5 µM): 101.4%
Relative viability (%) of test items ([9]; 25 µM): 66.8%
Relative viability (%) of test items ([9]; 50 µM): 24.3%
Relative viability (%) of test items ([9]; 100 µM): −32.9%
TGI: Concentration for total inhibition of cell growth ([9]; NHF): 64.820 µM
IC50 ([9]; read-out: IC50: Concentration to inhibit 50% of cell growth, NHF): 35.7 µM
CC50 ([9]; read-out: LC50: Concentration for 50% cell death, NHF): > 100 µM
variation of denaturation temperature (Tm) of native hGal1 [10]: greater variation
inhibitory effect on galectin-induced hemagglutination [11]: better effect
IC50 [12]: < 25 µM
effect on the profile of antiproliferative activity in association with cisplatin [13]: substantially improved
